Results from patent publication US20240392004A1 (IMMUNOWAKE, published 2024).

T1: human IL-2 receptor (IL-2Rα, IL-2Rβ, IL-2Rγ) (human, UniProt P01589 22-272; P14784 27-551; P31785 23-369)
T1 sequence (looked up) 1: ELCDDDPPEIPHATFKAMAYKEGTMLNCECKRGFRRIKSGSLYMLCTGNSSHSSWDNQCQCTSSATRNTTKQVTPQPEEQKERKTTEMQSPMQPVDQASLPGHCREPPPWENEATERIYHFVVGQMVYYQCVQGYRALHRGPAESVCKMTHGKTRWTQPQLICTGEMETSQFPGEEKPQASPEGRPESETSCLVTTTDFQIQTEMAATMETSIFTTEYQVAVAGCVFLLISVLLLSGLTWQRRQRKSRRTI
T1 sequence (looked up) 2: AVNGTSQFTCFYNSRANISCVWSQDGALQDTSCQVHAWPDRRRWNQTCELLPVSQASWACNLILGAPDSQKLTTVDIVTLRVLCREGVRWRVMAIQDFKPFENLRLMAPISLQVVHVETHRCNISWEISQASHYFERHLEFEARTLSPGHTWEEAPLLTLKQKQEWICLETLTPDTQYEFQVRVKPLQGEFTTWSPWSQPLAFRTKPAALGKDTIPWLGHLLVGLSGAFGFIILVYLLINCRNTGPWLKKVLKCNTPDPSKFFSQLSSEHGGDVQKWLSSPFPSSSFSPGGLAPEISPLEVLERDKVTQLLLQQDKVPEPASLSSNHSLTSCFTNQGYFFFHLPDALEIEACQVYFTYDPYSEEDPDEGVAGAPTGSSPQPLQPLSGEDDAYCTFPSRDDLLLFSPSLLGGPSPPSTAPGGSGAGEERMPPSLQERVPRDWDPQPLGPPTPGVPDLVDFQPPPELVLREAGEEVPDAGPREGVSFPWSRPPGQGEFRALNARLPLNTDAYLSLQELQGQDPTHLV
T1 sequence (looked up) 3: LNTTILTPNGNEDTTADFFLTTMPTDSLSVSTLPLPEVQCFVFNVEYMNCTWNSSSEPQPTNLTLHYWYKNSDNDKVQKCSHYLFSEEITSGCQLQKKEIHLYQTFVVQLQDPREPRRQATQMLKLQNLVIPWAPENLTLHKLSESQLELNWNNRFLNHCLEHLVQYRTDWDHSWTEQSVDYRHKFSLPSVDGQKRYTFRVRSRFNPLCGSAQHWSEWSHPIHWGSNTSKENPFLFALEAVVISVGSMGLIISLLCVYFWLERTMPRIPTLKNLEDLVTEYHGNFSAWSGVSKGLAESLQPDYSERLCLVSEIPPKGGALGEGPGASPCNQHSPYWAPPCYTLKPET

T2: human TIGIT on HEK-Blue reporter cells (human, UniProt Q495A1 22-244)
T2 sequence (looked up): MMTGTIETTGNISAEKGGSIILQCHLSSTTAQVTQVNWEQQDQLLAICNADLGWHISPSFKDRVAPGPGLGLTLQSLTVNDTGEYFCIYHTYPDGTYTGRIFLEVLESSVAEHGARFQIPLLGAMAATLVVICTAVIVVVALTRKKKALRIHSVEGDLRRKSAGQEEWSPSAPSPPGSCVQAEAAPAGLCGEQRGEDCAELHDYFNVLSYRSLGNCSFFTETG

B1: IL-12(E59A/F60A)/CD155-Fc (IL-12 at hinge) (Fc fusion)
chain 1: WPPPGTGDVVVQAPTQVPGFLGDSVTLPCYLQVPNMEVTHVSQLTWARHGESGSMAVFHQTQGPSYSESKRLEFVAARLGAELRNASLRMFGLRVEDEGNYTCLFVTFPQGSRSVDIWLRVLAKPQNTAEVQKVQLTGEPVPMARCVSTGGRPPAQITWHSDLGGMPNTSQVPGFLSGTVTVTSLWILVPSSQVDGKNVTCKVEHESFEKPQLLTVNLTVYYPPEVSISGYDNNWYLGQNEATLTCDARSNPEPTGYNWSTTMGPLPPFAVAQGAQLLIRPVDKPINTTLICNVTNALGARQAELTVQVKEGPPSEHSGISRNGGGGSGGGIWELKKDVYVVELDWYPDAPGEMVVLTCDTPEEDGITWTLDQSSEVLGSGKTLTIQVKAAGDAGQYTCHKGGEVLSHSLLLLHKKEDGIWSTDILKDQKEPKNKTFLRCEAKNYSGRFTCWWLTTISTDLTFSVKSSRGSSDPQGVTCGAATLSAERVRGDNKEYEYSVECQEDSACPAAEESLPIEVMVDAVHKLKYENYTSSFFIRDIIKPDPPKNLQLKPLKNSRQVEVSWEYPDTWSTPHSYFSLTFCVQVQGKSKREKKDRVFTDKTSATVICRKNASISVRAQDRYYSSSWSEWASVPCSGGGGSGGGSGGGGSRNLPVATPDPGMFPCLHHSQNLLRAVSNMLQKARQTLEFYPCTSEEIDHEDITKDKTSTVEACLPLELTKNESCLNSRETSFITNGSCLASRKTSFMMALCLSSIYEDLKMYQVEFKTMNAKLLMDPKRQIFLDQNMLAVIDELMQALNFNSETVPQKSSLEEPDFYKTKIKLCILLHAFRIRAVTIDRVMSYLNASGGGGSGGGDKTHTCPPCPAPEDEGGPSVFLFPPKPKDTLMISRTPEVTCVVVDVSHEDPEVKFNWYVDGVEVHNAKTKPREEQYNSTYRVVSVLTVLHQDWLNGKEYKCKVSNKALPAPIEKTISKAKGQPREPQVYVYPPSREEMTKNQVSLTCLVKGFYPSDIAVEWESNGQPENNYKTTPPVLDEDGSFALVSKLTVDKSRWQQGNVFSCSVMHEALHNHYTQKSLSLSPGK
chain 2: WPPPGTGDVVVQAPTQVPGFLGDSVTLPCYLQVPNMEVTHVSQLTWARHGESGSMAVFHQTQGPSYSESKRLEFVAARLGAELRNASLRMFGLRVEDEGNYTCLFVTFPQGSRSVDIWLRVLAKPQNTAEVQKVQLTGEPVPMARCVSTGGRPPAQITWHSDLGGMPNTSQVPGFLSGTVTVTSLWILVPSSQVDGKNVTCKVEHESFEKPQLLTVNLTVYYPPEVSISGYDNNWYLGQNEATLTCDARSNPEPTGYNWSTTMGPLPPFAVAQGAQLLIRPVDKPINTTLICNVTNALGARQAELTVQVKEGPPSEHSGISRNGGGGSGGGDKTHTCPPCPAPEKKGGPSVFLFPPKPKDTLMISRTPEVTCVVVDVSHEDPEVKFNWYVDGVEVHNAKTKPREEQYNSTYRVVSVLTVLHQDWLNGKEYKCKVSNKALPAPIEKTISKAKGQPREPQVYVLPPSREEMTKNQVSLLCLVKGFYPSDIAVEWESNGQPENRYMTWPPVLDSDGSFFLYSKLTVDKSRWQQGNVFSCSVMHEALHNHYTQKSLSLSPGK
B2: IL-2(L18R/Q22E/R38D/K43E/E61R/Q126T/S130R)/CD155-Fc (Fc fusion)
chain 1: WPPPGTGDVVVQAPTQVPGFLGDSVTLPCYLQVPNMEVTHVSQLTWARHGESGSMAVFHQTQGPSYSESKRLEFVAARLGAELRNASLRMFGLRVEDEGNYTCLFVTFPQGSRSVDIWLRVLAKPQNTAEVQKVQLTGEPVPMARCVSTGGRPPAQITWHSDLGGMPNTSQVPGFLSGTVTVTSLWILVPSSQVDGKNVTCKVEHESFEKPQLLTVNLTVYYPPEVSISGYDNNWYLGQNEATLTCDARSNPEPTGYNWSTTMGPLPPFAVAQGAQLLIRPVDKPINTTLICNVTNALGARQAELTVQVKEGPPSEHSGISRNGGGGSGGGDKTHTCPPCPAPEDEGGPSVFLFPPKPKDTLMISRTPEVTCVVVDVSHEDPEVKFNWYVDGVEVHNAKTKPREEQYNSTYRVVSVLTVLHQDWLNGKEYKCKVSNKALPAPIEKTISKAKGQPREPQVYVYPPSREEMTKNQVSLTCLVKGFYPSDIAVEWESNGQPENNYKTTPPVLDEDGSFALVSKLTVDKSRWQQGNVFSCSVMHEALHNHYTQKSLSLSPGK
chain 2: WPPPGTGDVVVQAPTQVPGFLGDSVTLPCYLQVPNMEVTHVSQLTWARHGESGSMAVFHQTQGPSYSESKRLEFVAARLGAELRNASLRMFGLRVEDEGNYTCLFVTFPQGSRSVDIWLRVLAKPQNTAEVQKVQLTGEPVPMARCVSTGGRPPAQITWHSDLGGMPNTSQVPGFLSGTVTVTSLWILVPSSQVDGKNVTCKVEHESFEKPQLLTVNLTVYYPPEVSISGYDNNWYLGQNEATLTCDARSNPEPTGYNWSTTMGPLPPFAVAQGAQLLIRPVDKPINTTLICNVTNALGARQAELTVQVKEGPPSEHSGISRNGGGSGAPTSSSTKKTQLQLEHLRLDLEMILNGINNYKNPKLTDMLTFEFYMPKKATELKHLQCLERELKPLEEVLNLAQSKNFHLRPRDLISNINVIVLELKGSETTFMCEYADETATIVEFLNRWITFCTSIIRTLTGGGGSGGGDKTHTCPPCPAPEKKGGPSVFLFPPKPKDTLMISRTPEVTCVVVDVSHEDPEVKFNWYVDGVEVHNAKTKPREEQYNSTYRVVSVLTVLHQDWLNGKEYKCKVSNKALPAPIEKTISKAKGQPREPQVYVLPPSREEMTKNQVSLLCLVKGFYPSDIAVEWESNGQPENRYMTWPPVLDSDGSFFLYSKLTVDKSRWQQGNVFSCSVMHEALHNHYTQKSLSLSPGK
B3: IL-12(E59A/F60A)/IL-2(L18R/Q22E/R38D/K43E/E61R)/CD155-Fc (Fc fusion)
chain 1: WPPPGTGDVVVQAPTQVPGFLGDSVTLPCYLQVPNMEVTHVSQLTWARHGESGSMAVFHQTQGPSYSESKRLEFVAARLGAELRNASLRMFGLRVEDEGNYTCLFVTFPQGSRSVDIWLRVLAKPQNTAEVQKVQLTGEPVPMARCVSTGGRPPAQITWHSDLGGMPNTSQVPGFLSGTVTVTSLWILVPSSQVDGKNVTCKVEHESFEKPQLLTVNLTVYYPPEVSISGYDNNWYLGQNEATLTCDARSNPEPTGYNWSTTMGPLPPFAVAQGAQLLIRPVDKPINTTLICNVTNALGARQAELTVQVKEGPPSEHSGISRNGGGGSGGGIWELKKDVYVVELDWYPDAPGEMVVLTCDTPEEDGITWTLDQSSEVLGSGKTLTIQVKAAGDAGQYTCHKGGEVLSHSLLLLHKKEDGIWSTDILKDQKEPKNKTFLRCEAKNYSGRFTCWWLTTISTDLTFSVKSSRGSSDPQGVTCGAATLSAERVRGDNKEYEYSVECQEDSACPAAEESLPIEVMVDAVHKLKYENYTSSFFIRDIIKPDPPKNLQLKPLKNSRQVEVSWEYPDTWSTPHSYFSLTFCVQVQGKSKREKKDRVFTDKTSATVICRKNASISVRAQDRYYSSSWSEWASVPCSGGGGSGGGSGGGGSRNLPVATPDPGMFPCLHHSQNLLRAVSNMLQKARQTLEFYPCTSEEIDHEDITKDKTSTVEACLPLELTKNESCLNSRETSFITNGSCLASRKTSFMMALCLSSIYEDLKMYQVEFKTMNAKLLMDPKRQIFLDQNMLAVIDELMQALNFNSETVPQKSSLEEPDFYKTKIKLCILLHAFRIRAVTIDRVMSYLNASGGGGSGGGDKTHTCPPCPAPEDEGGPSVFLFPPKPKDTLMISRTPEVTCVVVDVSHEDPEVKFNWYVDGVEVHNAKTKPREEQYNSTYRVVSVLTVLHQDWLNGKEYKCKVSNKALPAPIEKTISKAKGQPREPQVYVYPPSREEMTKNQVSLTCLVKGFYPSDIAVEWESNGQPENNYKTTPPVLDEDGSFALVSKLTVDKSRWQQGNVFSCSVMHEALHNHYTQKSLSLSPGK
chain 2: WPPPGTGDVVVQAPTQVPGFLGDSVTLPCYLQVPNMEVTHVSQLTWARHGESGSMAVFHQTQGPSYSESKRLEFVAARLGAELRNASLRMFGLRVEDEGNYTCLFVTFPQGSRSVDIWLRVLAKPQNTAEVQKVQLTGEPVPMARCVSTGGRPPAQITWHSDLGGMPNTSQVPGFLSGTVTVTSLWILVPSSQVDGKNVTCKVEHESFEKPQLLTVNLTVYYPPEVSISGYDNNWYLGQNEATLTCDARSNPEPTGYNWSTTMGPLPPFAVAQGAQLLIRPVDKPINTTLICNVTNALGARQAELTVQVKEGPPSEHSGISRNGGGSGAPTSSSTKKTQLQLEHLRLDLEMILNGINNYKNPKLTDMLTFEFYMPKKATELKHLQCLERELKPLEEVLNLAQSKNFHLRPRDLISNINVIVLELKGSETTFMCEYADETATIVEFLNRWITFCQSIISTLTGGGGSGGGDKTHTCPPCPAPEKKGGPSVFLFPPKPKDTLMISRTPEVTCVVVDVSHEDPEVKFNWYVDGVEVHNAKTKPREEQYNSTYRVVSVLTVLHQDWLNGKEYKCKVSNKALPAPIEKTISKAKGQPREPQVYVLPPSREEMTKNQVSLLCLVKGFYPSDIAVEWESNGQPENRYMTWPPVLDSDGSFFLYSKLTVDKSRWQQGNVFSCSVMHEALHNHYTQKSLSLSPGK

Columns and labels:
Experiment in all cases: cell-based or functional assay
[1] = biological target: T1, human IL-2 receptor (IL-2Rα, IL-2Rβ, …)
[2] = biological target: T2, human TIGIT on HEK-Blue reporter cells
[3] = biological target: human IL-12 receptor complex (IL-12Rβ1 and IL-12Rβ2) (human, UniProt P42701 24-662; Q99665 24-862)
Chain of human IL-12 receptor complex (IL-12Rβ1 and IL-12Rβ2) (Q99665 24-862, chain 2 of 2, other chains not shown): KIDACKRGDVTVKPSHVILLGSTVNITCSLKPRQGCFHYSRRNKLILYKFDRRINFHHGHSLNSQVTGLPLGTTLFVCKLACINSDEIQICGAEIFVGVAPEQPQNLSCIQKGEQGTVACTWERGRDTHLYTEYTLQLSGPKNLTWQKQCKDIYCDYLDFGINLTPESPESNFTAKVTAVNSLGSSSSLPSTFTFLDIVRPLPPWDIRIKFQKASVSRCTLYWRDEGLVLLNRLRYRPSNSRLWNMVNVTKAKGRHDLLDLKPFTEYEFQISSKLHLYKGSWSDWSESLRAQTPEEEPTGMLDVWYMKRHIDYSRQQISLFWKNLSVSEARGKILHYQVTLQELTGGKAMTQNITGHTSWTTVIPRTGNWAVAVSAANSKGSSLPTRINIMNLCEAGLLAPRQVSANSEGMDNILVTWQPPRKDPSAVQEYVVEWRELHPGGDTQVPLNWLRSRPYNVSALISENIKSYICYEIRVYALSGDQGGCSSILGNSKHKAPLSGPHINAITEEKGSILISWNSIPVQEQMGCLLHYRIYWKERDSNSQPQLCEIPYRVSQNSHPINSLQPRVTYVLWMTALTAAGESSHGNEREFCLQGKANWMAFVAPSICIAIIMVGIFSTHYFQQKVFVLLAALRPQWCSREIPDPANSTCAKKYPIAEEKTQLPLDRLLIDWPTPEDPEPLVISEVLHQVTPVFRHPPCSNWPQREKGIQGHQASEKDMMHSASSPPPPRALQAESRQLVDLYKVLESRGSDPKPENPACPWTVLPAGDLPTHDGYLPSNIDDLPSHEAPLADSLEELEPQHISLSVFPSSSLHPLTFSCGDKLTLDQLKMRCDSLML

Row | Binder | IL-2 signal transduction, HEK-IL-2 [1] | IL-2 signal transduction, HEK-IL-2-TIGIT [2] | IL-12 signal transduction, HEK-IL-12-TIGIT [2] | IL-12 signal transduction, HEK-IL-12 [3]
1 | B1 | < 0.1% | < 0.1% | 21% | < 0.2%
2 | B2 | < 0.1% | < 0.1% |  | 
3 | B3 | 12% | 78% | 21% | < 0.2%
